In patent publication US8735097B2, “Human antibiotic proteins” (Planton GmbH, priority 1999, dated 2014):
Where no end group is shown, it is not given here.

How the values were obtained:
gram-positive bacteria = settings: cited from earlier work
gram-negative bacteria = settings: cited from earlier work
E. coli [1] = assay: Liquid culture test, LD90 by counting colony-forming units, E. coli; type: cell-based, Escherichia coli; settings: 3 hours at 37° C., 5·10^4 KBE/ml, 10 mmol sodium phosphate buffer pH 7.4 with 1% TSB
Method: (§1) To be able to assess the dose-dependent range of action of an antimicrobial or antibiotic protein, a liquid culture testing system was used (cf. Ganz et al., 1985).
(§2) About 10 μl of a 1×10^7/ml dilution of the corresponding microorganisms in sodium-phosphate buffer (cf. 3.1) was added to 80 μl of sodium-phosphate buffer together with 1.25% TSB medium (v/v). 10 μl of 0.01% acetic acid was added with the corresponding concentrations of the antimicrobial or antibiotic protein (100 μg/ml, 50 μg/ml, 25 μg/ml, 12.5 μg/ml, and 6.25 μg/ml).
(§3) These batches were incubated in a 96-hole plate (Becton Dickinson, Heidelberg) for 3 hours at 37° C. while being shaken lightly (150 rpm). After the incubation time, tenfold dilution series were made from 50 μl of each of the batches with sodium-phosphate buffer and flattened out (100 μl) in each case in 3 parallel lines on TSB-agar plates. After 24 to 36 hours of growth, the colonies were counted out.
(§4) SAP-3 was incubated at the indicated concentrations at 37° C. for 3 hours with 5·10^4 KBE/ml (KBE=colony-forming units) of E. coli and Staphylococcus aureus in 100 μl of 10 mmol of sodium phosphate buffer (pH=7.4) together with 1% TSB (TSB=trypticase-soy broth). The antimicrobial activity of SAP-3 was determined by counting out the KBE on the subsequent day. 100 μl of the respective batches in tenfold dilution stages was flattened out on TSB plates in advance. […]

E. coli [2] = assay: MIC, antimicrobial activity against E. coli; type: cell-based, Escherichia coli
Text: (§5) The following microorganisms were used for the tests: • Escherichia coli (E. coli)—ATCC (American Type Culture Collection) No. 11303 • Pseudomonas aeruginosa—ATCC No. 15442 • Staphylococcus aureus (clinical isolates from the dermatological hospital of Kiel) • Staphylococcus epidermidis (clinical isolates from the dermatological hospital of Kiel) • Candida albicans (clinical isolates from the dermatological hospital of Kiel)
(§6) The microorganisms were cultivated on Trypticase-soy-broth (TSB) agar plates at 37° C. If they were not needed for a long time, they were stored at 4° C. For the tests, in each case a single colony of the corresponding microorganisms was inoculated in 40 ml of TSB medium and incubated overnight at 37° C. while being shaken (250 rpm). To quantify the microorganisms, the optical density of the overnight cultures was measured at 620 nm (OD620), and the colony number was determined by flattening out corresponding dilution stages.
(§7) To be able to assess the dose-dependent range of action of an antimicrobial or antibiotic protein, a liquid culture testing system was used (cf. Ganz et al., 1985). […]
(§8) These batches were incubated in a 96-hole plate (Becton Dickinson, Heidelberg) for 3 hours at 37° C. while being shaken lightly (150 rpm). […] After 24 to 36 hours of growth, the colonies were counted out.

Staphylococcus aureus [3] = assay: Liquid culture test, LD90 by counting colony-forming units, Staphylococcus aureus; type: cell-based; settings: 3 hours at 37° C., 10 mmol sodium phosphate buffer pH 7.4 with 1% TSB
Method: as §1, §2, §8
as §4, with “day.” for “day. 100 μl of the respective batches in tenfold dilution stages was flattened out on TSB plates in advance.”
SAP-2 was incubated at the indicated concentrations at 37° C. for 3 hours with 1·10^5 KBE/ml of the respective microorganisms in 100 μl of 10 mmol of sodium phosphate buffer (pH=7.4) together with 1% TSB. The antimicrobial activity of SAP-2 was determined by counting out the KBE on the subsequent day. […]

Staph aureus = assay: MIC, antimicrobial activity against Staph aureus; type: cell-based, Staphylococcus aureus
Text: as §5, §6, §7, §8

E. coli [4] = settings: cited from earlier work
Candida albicans [5] = settings: cited from earlier work
Pseudomonas aeruginosa [6] = settings: cited from earlier work
Klebsiella pneumoniae = settings: cited from earlier work
Staphylococcus aureus [7] = settings: cited from earlier work
Pseudomonas aeruginosa [8] = assay: Liquid culture test, LD90 by counting colony-forming units, Pseudomonas aeruginosa; type: cell-based; settings: 3 hours at 37° C., 1·10^5 KBE/ml, 10 mmol sodium phosphate buffer pH 7.4 with 1% TSB
Method: as §1, §2, §3
(§9) SAP-2 was incubated at the indicated concentrations at 37° C. for 3 hours with 1·10^5 KBE/ml of the respective microorganisms in 100 μl of 10 mmol of sodium phosphate buffer (pH=7.4) together with 1% TSB. The antimicrobial activity of SAP-2 was determined by counting out the KBE on the subsequent day. 100 μl of the respective batches was flattened out in tenfold dilution stages on TSB plates in advance. Then, the plates were incubated at 37° C. overnight.

human RNA = assay: RNase activity; type: biochemical; settings: 1.2 μg of SAP-2, one hour at 37° C.
Method: RNase activity: 1.2 μg of SAP-2 digested about 5 μg of human RNA in one hour at 37° C.

Candida albicans [9] = assay: Liquid culture test, LD90 by counting colony-forming units, Candida albicans; type: cell-based; settings: 3 hours at 37° C., 1·10^5 KBE/ml, 10 mmol sodium phosphate buffer pH 7.4 with 1% TSB
Method: as §1, §2, §3, §9

propionibacterium acnes = assay: Liquid culture test, LD90 by counting colony-forming units, propionibacterium acnes; type: cell-based; settings: 3 hours at 37° C., 1·10^5 KBE/ml, 10 mmol sodium phosphate buffer pH 7.4 with 1% TSB
Method: as §1, §2, §3, §9

In the case of “hBD-2: second β-defensin isolated in humans, 41 amino acids, inducible peptide (GIGDPVTCLKSGAICHPVFCPRRYKQIGTCGLPGTKCCKKP; ends and bridges not checked; cysteine pairing not given here; UniProt O15263 24-64, looked up)”, the “LD90 against gram-positive bacteria” value (gram-positive bacteria) is listed as “exceeds 100 μg/ml” and the “LD90 against gram-negative bacteria” value (gram-negative bacteria) is listed as 10 µg/mL.

With “SAP-3: human antibiotic protein of about 6 kDa isolated from lesional psoriasis scales, SEQ ID NO: 2, to be renamed hBD-3 (GIINTLQKYYCRVRGGRCAVLSCLPKEEQIGKCSTRGRKCCRRKK; listed as Homo sapiens)” the “LD90 for E. coli” value (E. coli [1]) was 2.5 to 5 µg/mL, the “MIC, antimicrobial activity against E. coli” value (E. coli [2]) was <20 µg/mL and the “LD90 for Staphylococcus aureus” value (Staphylococcus aureus [3]; 5·10^4 KBE/ml) was 2.5 to 5 µg/mL. The “MIC, antimicrobial activity against Staph aureus” value (Staph aureus) was <100 µg/mL.

B1: TAP: first known epithelial β-defensin, which protects the trachea of bovines, 64 amino acids (protein, UniProt P25068 1-64, looked up)
chain: MRLHHLLLALLFLVLSAWSGFTQGVGNPVSCVRNKGICVPIRCPGSMKQIGTCVGRAVKCCRKK
modifications: ends and bridges not checked
notes: first known epithelial β-defensin, which protects the trachea of bovines, 64 amino acids
For B1, the “minimum inhibition concentration against E. coli” value (E. coli [4]) is listed as 12 to 50 µg/mL, the “action on Candida albicans” value (Candida albicans [5]) is listed as “destroyed” and the “minimum inhibition concentration against Pseudomonas aeruginosa” value (Pseudomonas aeruginosa [6]) is listed as 12 to 50 µg/mL. For the same molecule, the “minimum inhibition concentration against Klebsiella pneumoniae” value (Klebsiella pneumoniae) was 12 to 50 µg/mL and the “minimum inhibition concentration against Staphylococcus aureus” value (Staphylococcus aureus [7]) was 12 to 50 µg/mL.

B2: SAP-2: human antibiotic protein of about 20 kDa isolated from lesional psoriasis scales, SEQ ID NO: 1, to be renamed RNase 7 (protein, listed as Homo sapiens)
chain: KPKGMTSSQWFKIQHMQPSPQACNSAMKNINKHTKRCKDLNTFLHEPFSSVAATCQTPKIACKNGDKNCHQSHGPVSLTMCKLTSGKYPNCRYKEKRQNKSYVVACKPPQKKDSQQFHLVPVHLDRVL
For B2, the “LD90 for Pseudomonas aeruginosa” value (Pseudomonas aeruginosa [8]) was 7.5 to 15 µg/mL, the “MIC, antimicrobial activity against E. coli” value (E. coli [2]) was < 50 µg/mL and the “RNase activity: human RNA digested” value (human RNA) was “about 5 μg”. The “LD90 for Candida albicans” value (Candida albicans [9]) was 15 to 30 µg/mL, the “LD90 for propionibacterium acnes” value (propionibacterium acnes) was 4 to 7.5 µg/mL and the “LD90 for Staphylococcus aureus” value (Staphylococcus aureus [3]; 1·10^5 KBE/ml) was 7.5 to 15 µg/mL. For the same molecule, the “MIC, antimicrobial activity against Staph aureus” value (Staph aureus) was < 100 µg/mL.
